Consider 85 variants from the Human Domainome abundance scans (Beltran et al. 2025).

The chains are these.
B1: Dynamin-binding protein, residues 242 to 304; numbered along this chain, Q6XZF7 (parent)
chain: EEPGTYGVALYRFQALEPNELDFEVGDKIRILATLEDGWLEGSLKGRTGIFPYRFVKLCPDTR

± gives the uncertainty stated by the source.

Variants of B1 are the subject of this data set. Put plainly: abundance fitness (aPCA) (normalised: wild type 0, dead -1); higher = more abundant; growth selection in yeast, the domain comes from the species named. Particulars: Homo sapiens.
Take EEPGTYGVALYRFQALEPNELDFEVGDKIRILATLEDGWLEGSLKGRTGIFPYRFVKLCQDTR: the abundance fitness worked out at 0.087 ± 0.15.
With EEPGTYGVALYRFQALEVNELDFEVGDKIRILATLEDGWLEGSLKGRTGIFPYRFVKLCPDTR the figure was -0.332 ± 0.062; with EEPGTYGVALYRFQALELNELDFEVGDKIRILATLEDGWLEGSLKGRTGIFPYRFVKLCPDTR, -0.42 ± 0.075.
With EEPGTYGVALYRFQALEPNELDFEVGDKIRILDTLEDGWLEGSLKGRTGIFPYRFVKLCPDTR the figure was -0.24 ± 0.074; with EEPGTYGVALYRFQALEPNELDFEVGDKIRILPTLEDGWLEGSLKGRTGIFPYRFVKLCPDTR, -0.429 ± 0.24; with EEPGTYGVALYRFQALEPNELDFEMGDKIRILATLEDGWLEGSLKGRTGIFPYRFVKLCPDTR, -0.169 ± 0.16.
Next, EKPGTYGVALYRFQALEPNELDFEVGDKIRILATLEDGWLEGSLKGRTGIFPYRFVKLCPDTR: -0.512 ± 0.22; EEPGTYGVAGYRFQALEPNELDFEVGDKIRILATLEDGWLEGSLKGRTGIFPYRFVKLCPDTR: -0.743 ± 0.098.
Take EEPGTYGVALYRFQALEPNELDFEVGDKIRILATLEDGWLEGSLKSRTGIFPYRFVKLCPDTR: the abundance fitness was -0.474 ± 0.038.
Next, EEPGTYGVALYRFQALEPNELDFIVGDKIRILATLEDGWLEGSLKGRTGIFPYRFVKLCPDTR: -0.444 ± 0.083; EEPGTYGVALYRFQALEPNELDFCVGDKIRILATLEDGWLEGSLKGRTGIFPYRFVKLCPDTR: -0.414 ± 0.062.
With EEPGTYGVALYRFQALEPNELWFEVGDKIRILATLEDGWLEGSLKGRTGIFPYRFVKLCPDTR the figure was -0.624 ± 0.18.
Next, EEPGTYGVALYRFQALEPNELDFEVGDKIRILATLEVGWLEGSLKGRTGIFPYRFVKLCPDTR: -0.561 ± 0.068.
As to EEPGTYGVALYRFQALEPNELDFEVGDKIRILATLEDTWLEGSLKGRTGIFPYRFVKLCPDTR, the abundance fitness was -0.983 ± 0.17.
Next, EEPGTYGVALYRFQALEPNELDFEVGDKIRILATLEDKWLEGSLKGRTGIFPYRFVKLCPDTR: -1.06 ± 0.46; EEPGTYGVALYRFQALEPNELDFEVGDKIRILATLEDGWLEGSLKGRTGIFPYRFVKACPDTR: -0.594 ± 0.082; EEPGTYGVALYGFQALEPNELDFEVGDKIRILATLEDGWLEGSLKGRTGIFPYRFVKLCPDTR: -0.071 ± 0.051.
Regarding EEPGTYGVALYSFQALEPNELDFEVGDKIRILATLEDGWLEGSLKGRTGIFPYRFVKLCPDTR, the abundance fitness was -0.12 ± 0.051.
Next, EEPGTYGVALYMFQALEPNELDFEVGDKIRILATLEDGWLEGSLKGRTGIFPYRFVKLCPDTR: -0.589 ± 0.25; EEPGTYGVALYRFQALEPNELDFEVGDKIVILATLEDGWLEGSLKGRTGIFPYRFVKLCPDTR: -0.73 ± 0.1.
Next, EEPGTYGVALYRFQALEPNELDFEVGDKICILATLEDGWLEGSLKGRTGIFPYRFVKLCPDTR: -0.367 ± 0.076; EEPGTYGVALYRFQALEPNELDFEVGDKIRILATLEDGWLEGSLKGRTGIFPQRFVKLCPDTR: 0.154 ± 0.18; EEPGTYGVALYRFQALEPNELDFEVGDKIRILATLEDGWLEGSLKGRTGIFPMRFVKLCPDTR: 0.265 ± 0.11.
Next, EEPGTYGVALYRFQALEPNELDFEVGDKNRILATLEDGWLEGSLKGRTGIFPYRFVKLCPDTR: -0.845 ± 0.11; EEPGTYGVALYRFQALEPNELDFEVGDKTRILATLEDGWLEGSLKGRTGIFPYRFVKLCPDTR: -0.639 ± 0.12.
Turning to EEPGTYGVALYRFQALEPNELDFEVGDKHRILATLEDGWLEGSLKGRTGIFPYRFVKLCPDTR, the abundance fitness is -0.634 ± 0.11.
Next, EEPGTYGVALYRFQALEPNELDFEVGDKIRILATLEDGWLEGSLKGRTGIFPYPFVKLCPDTR: -0.525 ± 0.15; EEPGTYGVALYRFQALEPNELDFEVGDKIRILATLEDGWLEGSLKGRTGIFPYFFVKLCPDTR: -0.261 ± 0.065; EEPGTYGVALYRFQALEPNELDFEVGDKIRILATLEDGWLEGSLKGRTGIFPYTFVKLCPDTR: -0.24 ± 0.094.
Next, EEPGTYGVALYRFQALEPNELDFEVGDKIRILAPLEDGWLEGSLKGRTGIFPYRFVKLCPDTR: -0.59 ± 0.13; EEPGTYGVALYRFQALEPNILDFEVGDKIRILATLEDGWLEGSLKGRTGIFPYRFVKLCPDTR: -0.65 ± 0.095; EEPGTYGVALYRFQALEPNYLDFEVGDKIRILATLEDGWLEGSLKGRTGIFPYRFVKLCPDTR: 0.059 ± 0.056.
With EEPGTYGVALYRFQALEPNGLDFEVGDKIRILATLEDGWLEGSLKGRTGIFPYRFVKLCPDTR the figure was -0.246 ± 0.057; with EEPGTYGVALYRFQALEPNTLDFEVGDKIRILATLEDGWLEGSLKGRTGIFPYRFVKLCPDTR, 0.06 ± 0.069.
As to EEPGTYGVALYRFQALEPNALDFEVGDKIRILATLEDGWLEGSLKGRTGIFPYRFVKLCPDTR, the abundance fitness is -0.163 ± 0.076.
Next, EEPGTYGVALYRFQALEPNELDFEVGDKIRILATLEDGDLEGSLKGRTGIFPYRFVKLCPDTR: -0.661 ± 0.11; EEPGTYGVALYRFQALEPNELDFEVGDKIRILATLEDGTLEGSLKGRTGIFPYRFVKLCPDTR: -0.492 ± 0.096; EEPGTYGVALYRFTALEPNELDFEVGDKIRILATLEDGWLEGSLKGRTGIFPYRFVKLCPDTR: -0.109 ± 0.063.
As to EEPGTYGVALYRFQALEPNELDFEVGDKIRIKATLEDGWLEGSLKGRTGIFPYRFVKLCPDTR, the abundance fitness was -0.588 ± 0.2.
Next, EEPGTYGVALYRFQALEPNELDFEVGDKIRIWATLEDGWLEGSLKGRTGIFPYRFVKLCPDTR: -0.784 ± 0.2; EEPGTYGVALYRFQALEPNELDFEVGDKIRILATLEDGWLEGSNKGRTGIFPYRFVKLCPDTR: -0.567 ± 0.12.
Next, EEPGTYGVALYRFQALEPNELDFEVGDKIRILATLEDGWLEGSPKGRTGIFPYRFVKLCPDTR: -0.575 ± 0.23; EEPGTYGVALYRFQALEPNELDFEVGDKIRILATLEDGWLEGSLKGRTGIFPYRFVKLCPDYR: -0.127 ± 0.052; EEPGTYGVALYRFQALEPNELDFEVGDKIRILATLEDGWLEGSLKGRTGIFPYRFVKLCPDAR: -0.022 ± 0.057.
Next, EEPGTYGVALYRFQALEPNELDFEVGDKIRILATLEDGWLEGSLKGRTGIFPYRFVKLCPDKR: -0.267 ± 0.15; EEPGTYGVALYRFQALEPPELDFEVGDKIRILATLEDGWLEGSLKGRTGIFPYRFVKLCPDTR: -0.704 ± 0.15; EEPGTYGVALYRFQALEPFELDFEVGDKIRILATLEDGWLEGSLKGRTGIFPYRFVKLCPDTR: -0.297 ± 0.061.
For EEPGKYGVALYRFQALEPNELDFEVGDKIRILATLEDGWLEGSLKGRTGIFPYRFVKLCPDTR, the abundance fitness is -0.253 ± 0.16.
On to EEPGNYGVALYRFQALEPNELDFEVGDKIRILATLEDGWLEGSLKGRTGIFPYRFVKLCPDTR, for which the abundance fitness was -0.3 ± 0.081.
With EEPATYGVALYRFQALEPNELDFEVGDKIRILATLEDGWLEGSLKGRTGIFPYRFVKLCPDTR the figure was -0.095 ± 0.059; with EEPMTYGVALYRFQALEPNELDFEVGDKIRILATLEDGWLEGSLKGRTGIFPYRFVKLCPDTR, 0.283 ± 0.28; with EEPGTYGVALYRFQALEPNELDFEVSDKIRILATLEDGWLEGSLKGRTGIFPYRFVKLCPDTR, -0.674 ± 0.069.
With EEPGTYGVALYRFQALEPNELDFEVYDKIRILATLEDGWLEGSLKGRTGIFPYRFVKLCPDTR, the abundance fitness was -0.847 ± 0.17.
As to EEPGTYGVALYRFQALEPNELDFEVIDKIRILATLEDGWLEGSLKGRTGIFPYRFVKLCPDTR, the abundance fitness was -0.744 ± 0.094.
Next, EEPGTYGVALYRFQALEPNELDFEVEDKIRILATLEDGWLEGSLKGRTGIFPYRFVKLCPDTR: -1.01 ± 0.34; EEPGTYGVALYRFQALEPNELDFEVGDAIRILATLEDGWLEGSLKGRTGIFPYRFVKLCPDTR: -0.7 ± 0.1; EEPGTYGVALYRFQALEPNELDNEVGDKIRILATLEDGWLEGSLKGRTGIFPYRFVKLCPDTR: -0.805 ± 0.14.
With EEPGTYGVALYRFQALEPNELDGEVGDKIRILATLEDGWLEGSLKGRTGIFPYRFVKLCPDTR the figure was -0.682 ± 0.094.
With EEPGTYGVALYRFQALEPNELDMEVGDKIRILATLEDGWLEGSLKGRTGIFPYRFVKLCPDTR the figure was -0.227 ± 0.13; with EEPGTYGVALYRFQALEPNELDFEVGDKIRILATLEDGWLEGSLKGRTGIFPYRFVQLCPDTR, -0.062 ± 0.1.
Regarding EEPGTYGVALYRFQALEPNELDFEVGDKIRILATLEDGWLEGSLKGRTGIFPYRFVKLCPFTR, the abundance fitness is -0.247 ± 0.047.
Next, EEPGTYGVALYRFQALEPNELDFEVGDKIRILATLEDGWLEGSLKGRSGIFPYRFVKLCPDTR: -0.351 ± 0.058; EEPGTYGVALYRFQALEPNELDFEVGDKIRILATLEDGWLHGSLKGRTGIFPYRFVKLCPDTR: -0.072 ± 0.065; EEPGTYGVALYRFQALEPNELDFEVGDKIRILATLEDGWLNGSLKGRTGIFPYRFVKLCPDTR: -0.527 ± 0.1.
With EEPGTYGVALYRFQALEPNELDFEVGDKIRILATLEDGWLQGSLKGRTGIFPYRFVKLCPDTR the figure was -0.064 ± 0.14; with EEPGTYGVALYRFQAKEPNELDFEVGDKIRILATLEDGWLEGSLKGRTGIFPYRFVKLCPDTR, -0.077 ± 0.25; with EEPGTYGVALYRFQALEPNELDFEVGDKIRILATLEDGWCEGSLKGRTGIFPYRFVKLCPDTR, 0.113 ± 0.048.
For the variant EEPGTYGVALYRFQALEPNELDFEVGDKIRILATLEDGWSEGSLKGRTGIFPYRFVKLCPDTR, the abundance fitness is -0.325 ± 0.057.
With EEPGTYGVALYRFQALEPNELDFEVGDKIRTLATLEDGWLEGSLKGRTGIFPYRFVKLCPDTR the figure was -0.722 ± 0.14.
Next, EEPGTYGVALYRFQALEPNELDFEVGDKIRVLATLEDGWLEGSLKGRTGIFPYRFVKLCPDTR: -0.463 ± 0.081; EEPGTYGVALYRFQALEPNELDFEVGDKIRALATLEDGWLEGSLKGRTGIFPYRFVKLCPDTR: -1.03 ± 0.21.
With EEPGTYGVALYRFQALEPNELDFEVGDKIRHLATLEDGWLEGSLKGRTGIFPYRFVKLCPDTR the figure was -0.448 ± 0.097.
For EEPGTYGVALYRFQALEPNELDFEVGDKIRILATLEDGWLEGSLKGRTGFFPYRFVKLCPDTR, the abundance fitness is -0.598 ± 0.077.
Next, EEPGTYGVALYRFQALEPNELDFEVGDKIRILATAEDGWLEGSLKGRTGIFPYRFVKLCPDTR: -0.304 ± 0.068; EEPGTYGVALVRFQALEPNELDFEVGDKIRILATLEDGWLEGSLKGRTGIFPYRFVKLCPDTR: -0.086 ± 0.049; EEPGTYGVALYRFQALEPNELDFEVGDKIRILATLEDGWLEGSLKGRTLIFPYRFVKLCPDTR: -0.887 ± 0.16.
Next, EEPGTYGVALYRFQALEPNELDFEVGDKIRILATLEDGWLEGSLKGRTFIFPYRFVKLCPDTR: -0.735 ± 0.1; EEPGTYGVALYRFQALEPNELDFEVGDKIRILATLEDGWLEGSLKGRTGIFPYRFAKLCPDTR: -0.521 ± 0.094; EEPGTYGVALYRFQALEPNELDFEVGDKIRILATLEDGWLEGSLKGRTGIFPYRFYKLCPDTR: -0.535 ± 0.094.
With EEPGTYGVALYRFQPLEPNELDFEVGDKIRILATLEDGWLEGSLKGRTGIFPYRFVKLCPDTR the figure was -0.355 ± 0.12.
In the case of EEPGTYGVALYRFQALEPNELDFEVGDKIRILATLEDGWLEGLLKGRTGIFPYRFVKLCPDTR, the abundance fitness is -0.368 ± 0.082.
With EEPGTYGVALYRFQALEPNELDFEVGDKIRILATLEDGWLEGDLKGRTGIFPYRFVKLCPDTR the figure was -0.32 ± 0.069; with EEPGTYGVALYRFQALEPNELDFEVGDKIRILATLEDGWLEGYLKGRTGIFPYRFVKLCPDTR, -0.085 ± 0.055.
EEPGTYGSALYRFQALEPNELDFEVGDKIRILATLEDGWLEGSLKGRTGIFPYRFVKLCPDTR: the abundance fitness is -0.701 ± 0.096.
For the variant EEPGTYGPALYRFQALEPNELDFEVGDKIRILATLEDGWLEGSLKGRTGIFPYRFVKLCPDTR, the abundance fitness is -0.865 ± 0.2.
